Molecular target: T1, Prostacyclin synthase (PTGIS), truncated, His-tagged, with Avi-tag, biotinylated (UniProt Q16647 1-500, biotin (in vivo biotinylation of the Avi-tag))
T1 construct: Prostacyclin synthase (PTGIS; EC 5.3.99.4), truncated (by the membrane domain); Held on the streptavidin (SA) chip; also called biotinylated PTGIS; PTGIS immobilized on the optical chip; source: E. coli BL21(DE3), purified (Ni-NTA, SEC)
T1 sequence (looked up): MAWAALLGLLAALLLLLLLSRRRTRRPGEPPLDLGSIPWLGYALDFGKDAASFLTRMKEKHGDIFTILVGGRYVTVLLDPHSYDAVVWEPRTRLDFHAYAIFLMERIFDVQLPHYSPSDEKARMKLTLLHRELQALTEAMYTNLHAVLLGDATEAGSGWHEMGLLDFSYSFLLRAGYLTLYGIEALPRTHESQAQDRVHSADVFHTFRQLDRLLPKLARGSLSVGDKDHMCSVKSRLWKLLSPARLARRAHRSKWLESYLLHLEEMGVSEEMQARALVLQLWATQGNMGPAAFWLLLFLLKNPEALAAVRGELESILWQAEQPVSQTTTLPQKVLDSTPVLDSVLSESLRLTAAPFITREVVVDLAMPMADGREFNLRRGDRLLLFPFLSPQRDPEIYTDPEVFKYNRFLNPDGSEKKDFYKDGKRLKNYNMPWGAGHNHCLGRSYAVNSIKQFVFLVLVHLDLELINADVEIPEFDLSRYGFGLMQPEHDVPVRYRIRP
Experiment: SPR; biotinylated PTGIS on a streptavidin (SA) chip, purified protein injected as analyte; 25 °C, Biacore T-200
Conditions: both partners purified

B1: Cytochrome P450 2J2 (CYP2J2), truncated and His-tagged (enzyme)
chain: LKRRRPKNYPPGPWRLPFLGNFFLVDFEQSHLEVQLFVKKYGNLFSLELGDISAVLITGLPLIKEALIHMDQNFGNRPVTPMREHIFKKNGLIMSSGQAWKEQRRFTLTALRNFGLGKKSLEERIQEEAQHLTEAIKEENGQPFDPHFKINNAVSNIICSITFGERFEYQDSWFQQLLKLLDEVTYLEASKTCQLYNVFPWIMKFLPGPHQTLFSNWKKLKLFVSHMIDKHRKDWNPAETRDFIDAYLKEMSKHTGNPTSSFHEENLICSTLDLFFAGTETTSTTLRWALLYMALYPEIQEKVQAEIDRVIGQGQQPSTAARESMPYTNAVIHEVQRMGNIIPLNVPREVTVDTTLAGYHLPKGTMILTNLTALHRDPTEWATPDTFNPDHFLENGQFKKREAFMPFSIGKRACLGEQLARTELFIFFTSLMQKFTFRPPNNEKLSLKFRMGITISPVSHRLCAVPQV
  Kd: 200 nM

Source: PMC6628129 (Biology, 2019)
